Results reported in patent US20160102129A1 (Novo Nordisk, published 2016).
*1 amine or outer side, *2 acyl side, *3 side chain or, on linkers, in order; H or OH if unused. Where no end group is shown, it is not given here. Side-chain parts run from the residue outwards. [ ]: non-standard residue; d: D form. The star is where a group is joined. C20 diacid = O=C(O)CCCCCCCCCCCCCCCCCCC(=O)*; C18 diacid = O=C(O)CCCCCCCCCCCCCCCCC(=O)*; C16 diacid = O=C(O)CCCCCCCCCCCCCCC(=O)*; γGlu = O=C(O)[C@H](CCC(=O)[*:2])N[*:1]; C14 diacid = O=C(O)CCCCCCCCCCCCC(=O)*; Desaminohistidyl = O=C(CCc1c[nH]cn1)*; AEEA = NCCOCCOCC(=O)O; Aib = CC(C)(N)C(=O)O

How the values were obtained:
human glucagon receptor [1] = target: T1, human glucagon receptor (human, UniProt P47871 26-477); assay: SPA displacement of [125I]-glucagon from human glucagon receptor BHK membranes
T1 construct: whole, on cells; reporter assay on whole cells
Description: 1. For the receptor binding assay 50 μl of the assay buffer was added to each well of an assay plate. [0603] 2. Test compounds were serially diluted to give the following concentrations: 8×10EE-7 M, 8×10EE-8 M, 8×10EE-9 M, 8×10EE-10 M, 8×10EE-11 M, 8×10EE-12 M and 8×10EE-13 M. Twenty-five μl were added to appropriate wells in the assay plate. [0604] 3. Cell membrane aliquots were thawed and diluted to their working concentration. Fifty μl were added to each well in the assay plate. [0605] 4. WGA SPA beads were suspended in assay buffer at 20 mg/ml. The suspension was diluted to 10 mg/ml in assay buffer just prior to addition to the assay plate. Fifty μl were added to each well in the assay plate. [0606] 5. […] A 25 μl aliquot was reserved for measuring total counts/well. […] 6. The assay plate was incubated for 2 h at 25° C. [0608] 7. The assay plate was centrifuged for 10 min at 1500 rpm. [0609] 8. The assay plate was read in a Perkin Elmer TopCount NXT instrument.

human GLP-1 receptor [2] = target: T2, human GLP-1 receptor (human, UniProt P43220 24-463); assay: SPA displacement of [125I]GLP-1(7-36)NH2 from hGLP-1R BHK membranes
T2 construct: whole, on cells; reporter assay on whole cells
Description: The GLP-1 receptor binding of each derivatives were determined with competitive binding, displacing [¹²⁵I]GLP-1 bound to GLP-1 receptors expressed in cell membranes associated with wheat germ agglutinin (WGA) scintillation proximity assay (SPA) beads. Each derivative was added in a series of concentrations to isolated membranes comprising the human GLP-1 receptor and displacement of the labelled radioligand was monitored. The receptor binding was reported as the concentration at which half of the labelled ligand is displaced from the receptor, the IC⁵⁰ value.
1. For the receptor binding assay 50 μl of the assay buffer was added to each well of an assay plate. [0588] 2. Test compounds were serially diluted to give the following concentrations: 8×10EE-7 M, 8×10EE-8 M, 8×10EE-9 M, 8×10EE-10 M, 8×10EE-11 M, 8×10EE-12 M and 8×10EE-13 M. Twenty-five μl were added to appropriate wells in the assay plate. [0589] 3. Cell membrane aliquots were thawed and diluted to their working concentration. Fifty μl were added to each well in the assay plate. [0590] 4. WGA SPA beads were suspended in assay buffer at 20 mg/ml. The suspension was diluted to 10 mg/ml in assay buffer just prior to addition to the assay plate. Fifty μl were added to each well in the assay plate. [0591] 5. […] A 25 μl aliquot was reserved for measuring total counts/well. [0592] 6. The assay plate was incubated for 2 h at 30° C. [0593] 7. The assay plate was centrifuged for 10 min. [0594] 8. The assay plate was read in a Perkin Elmer TopCount NXT instrument.

human GLP-1 receptor [3] = target: T2, human GLP-1 receptor; assay: cell-based or functional assay
human glucagon receptor [4] = target: T1, human glucagon receptor; assay: cell-based or functional assay

T1 sequence (P47871 26-477): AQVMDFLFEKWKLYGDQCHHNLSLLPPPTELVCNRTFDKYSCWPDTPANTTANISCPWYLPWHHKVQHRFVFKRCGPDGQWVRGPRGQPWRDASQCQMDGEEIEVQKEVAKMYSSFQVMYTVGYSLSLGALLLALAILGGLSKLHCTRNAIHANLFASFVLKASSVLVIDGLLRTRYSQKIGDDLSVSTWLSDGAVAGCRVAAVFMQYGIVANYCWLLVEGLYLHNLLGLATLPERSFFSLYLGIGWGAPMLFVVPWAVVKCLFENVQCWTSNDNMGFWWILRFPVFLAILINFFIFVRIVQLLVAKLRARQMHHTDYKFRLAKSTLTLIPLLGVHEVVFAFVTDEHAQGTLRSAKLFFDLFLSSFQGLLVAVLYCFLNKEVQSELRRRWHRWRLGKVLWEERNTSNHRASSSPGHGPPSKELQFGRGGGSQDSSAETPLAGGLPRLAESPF

Binder	IC50 (human glucagon receptor [1]) [nM]	IC50 (human GLP-1 receptor [2]) [nM]	EC50 GLP-1R [pM], CRE luciferase reporter gene assay (human GLP-1 receptor [3]) [pM]	EC50 GlucagonR [pM], CRE luciferase reporter gene assay (human glucagon receptor [4]) [pM]
[Desaminohistidyl][Aib]HGTFTSDVSKYLEARAAREFIAWLLKGGG (not fully specified (residue 28); printed as Nε34-[(4S)-4-carboxy-4-[[2-[2-[2-[[2-[2-[2-[[(4S)-4-carboxy-4-[[(4S)-4-carboxy-4-(17-carboxyheptadecanoylamino)butanoyl]amino]butanoyl]amino]ethoxy]ethoxy]acetyl]amino]ethoxy]ethoxy]acetyl]amino]butanoyl]-[Imp7,Aib8,His9,Lys18,Ala22,Arg23,Arg26,Leu33,Gly36]-GLP-1-(7-37)-peptide)	3.7	0.3	2.2	39.4
[Desaminohistidyl][Aib]HGTFTSDVSRYLEGRAAREFIAWLLK([γGlu-γGlu-AEEA-γGlu-γGlu-C18 diacid])GAG	18.8	1	3	248
[Desaminohistidyl][Aib]HGTFTSDVSRYLEGRAAREFIAWLLK([γGlu-γGlu-AEEA-γGlu-γGlu-C18 diacid])GSG	11.4	1.7	6	158
[Desaminohistidyl][Aib]HGTFTSDVSKYLEEQAAREFIAWLLK([Ado-Ado-γGlu-γGlu-C18 diacid])T-NH2	4.3	0.5	5.2	120
[Desaminohistidyl]AHGTFTSDVSRYLEEQAARK([AEEA-AEEA-γGlu-γGlu-γGlu-C18 diacid])FIAWLLR	126	2.2	8	1290
[Desaminohistidyl][Aib]HGTFTSDVSKYLEEQAAREFIAWLLK([Ado-Ado-γGlu-γGlu-C16 diacid])T-NH2	4	1.3	60.7	46.1
[Desaminohistidyl][Aib]HGTFTSDVSKYLEEQAAREFIAWLLK([Gly-Ser-Glu-Gly-Ser-γGlu-γGlu-C20 diacid])T-NH2	6	0.4	5	111
[Desaminohistidyl][Aib]HGTFTSDVSKYLEEQAAREFIAWLLK([Ado-Ado-γGlu-γGlu-C14 diacid])T-NH2	3.7	1.5	12	52.6
[Desaminohistidyl][Aib]HGTFTSDVSKYLEEQAAREFIAWLLK([γGlu-γGlu-Ser-Gly-Glu-Ser-Gly-C18 diacid])T (Named as peptide, not peptide amide (C-terminal acid))	11.9	2.3	5.5	84.5
[Desaminohistidyl][Aib]HGTFTSDVSKYLEEQAAREFIAWLLK([Gly-Ser-γGlu-γGlu-C18 diacid])T-NH2 (SMILES CC[C@H](C)[C@H](NC(=O)[C@H](Cc1ccccc1)NC(=O)[C@H](CCC(=O)O)NC(=O)[C@H](CCCNC(=N)N)NC(=O)[C@H](C)NC(=O)[C@H](C)NC(=O)[C@H](CCC(N)=O)NC(=O)[C@H](CCC(=O)O)NC(=O)[C@H](CCC(=O)O)NC(=O)[C@H](CC(C)C)NC(=O)[C@H](Cc1ccc(O)cc1)NC(=O)[C@H](CCCCN)NC(=O)[C@H](CO)NC(=O)[C@@H](NC(=O)[C@H](CC(=O)O)NC(=O)[C@H](CO)NC(=O)[C@@H](NC(=O)[C@H](Cc1ccccc1)NC(=O)[C@@H](NC(=O)CNC(=O)[C@H](Cc1c[nH]cn1)NC(=O)C(C)(C)NC(=O)CCc1c[nH]cn1)[C@@H](C)O)[C@@H](C)O)C(C)C)C(=O)N[C@@H](C)C(=O)N[C@@H](Cc1c[nH]c2ccccc12)C(=O)N[C@@H](CC(C)C)C(=O)N[C@@H](CC(C)C)C(=O)N[C@@H](CCCCNC(=O)CNC(=O)[C@H](CO)NC(=O)CC[C@H](NC(=O)CC[C@H](NC(=O)CCCCCCCCCCCCCCCCC(=O)O)C(=O)O)C(=O)O)C(=O)N[C@H](C(N)=O)[C@@H](C)O)	4.3	0.2	7	45
[Desaminohistidyl]AHGTFTSDVSKYLEGRAAREFIAWLLK([Ado-Ado-γGlu-γGlu-γGlu-C18 diacid])T-NH2	25.9	1	8	229
[Desaminohistidyl][Aib]HGTFTSDVSKYLEEQAAREFIAWLLK([Ado-Ado-γGlu-C18 diacid])T-NH2	20.3	0.7	6	83
[Desaminohistidyl][Aib]HGTFTSDVSRYLEEQAARK([AEEA-AEEA-γGlu-γGlu-γGlu-C18 diacid])FIAWLLR	21.2	2.9	7	143
[Desaminohistidyl]GHGTFTSDVSRYLEEQAAREFIAWLLK([Gly-Ser-Glu-Gly-Ser-γGlu-γGlu-C18 diacid])T-NH2	9.6	3.2	8	459
[Desaminohistidyl][Aib]HGTFTSDVSKYLEEQAAREFIAWLLK([Ado-Ado-γGlu-γGlu-C20 diacid])T-NH2	10.1	0.4	62.9	917
